Our source for the CDC of Daudi cells with baby rabbit serum (CCK8) (% of cells dead) values is patent US20230181701A1.

For the assay, the target named is CD20 on Daudi cells (UniProt P11836). Briefly: cell-based or functional assay.
Sequence of UniProt P11836 (P11836 whole entry): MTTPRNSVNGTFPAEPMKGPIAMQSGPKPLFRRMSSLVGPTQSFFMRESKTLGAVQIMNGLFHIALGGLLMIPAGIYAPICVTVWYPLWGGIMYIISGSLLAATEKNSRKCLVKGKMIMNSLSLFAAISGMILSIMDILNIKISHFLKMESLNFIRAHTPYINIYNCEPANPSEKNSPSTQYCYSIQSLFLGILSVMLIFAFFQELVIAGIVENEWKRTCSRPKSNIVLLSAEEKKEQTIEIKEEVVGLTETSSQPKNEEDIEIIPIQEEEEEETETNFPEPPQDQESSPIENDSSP

In turn, “Anti-CD20 IgG (Rituximab, N7022, 10 mg/mL, Mabthera) (antibody)” returned a CDC of Daudi cells with baby rabbit serum (CCK8) (% of cells dead) of 70.
